The values that follow come from US20110212476A1.

Targets include Gαi1 A326S (human); Gαi1 R178C/A326S (human); Gαi1 R178C (human); Gαi1 R178M (human); Gαi1 R178M/A326S (human).
Common to all, as to assay: cell-based or functional assay
In experiment [1] the target is Gαi1 wild type (full length human, His-tagged) (human).
Gαi1 wild type (full length human, His-tagged) (human), sequence (B2RSH2 2-354): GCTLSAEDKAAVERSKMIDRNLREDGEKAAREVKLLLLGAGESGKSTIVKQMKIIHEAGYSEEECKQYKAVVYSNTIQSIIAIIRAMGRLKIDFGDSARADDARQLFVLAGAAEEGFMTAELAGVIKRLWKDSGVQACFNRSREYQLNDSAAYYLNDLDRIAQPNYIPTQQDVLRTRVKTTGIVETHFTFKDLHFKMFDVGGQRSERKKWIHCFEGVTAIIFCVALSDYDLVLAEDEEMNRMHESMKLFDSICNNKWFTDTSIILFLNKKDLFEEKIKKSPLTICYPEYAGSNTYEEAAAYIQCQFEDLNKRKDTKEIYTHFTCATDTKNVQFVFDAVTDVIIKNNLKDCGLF

Gαi1 R178M/A326S (human), sequence (B2RSH2 2-354 R178M/A326S): as the sequence (B2RSH2 2-354) above, with R177M, A325S counted along it
human His-tagged RGS4 (23-298), sequence (P49798 other isoform, or with tags, fused parts or gaps limits assumed): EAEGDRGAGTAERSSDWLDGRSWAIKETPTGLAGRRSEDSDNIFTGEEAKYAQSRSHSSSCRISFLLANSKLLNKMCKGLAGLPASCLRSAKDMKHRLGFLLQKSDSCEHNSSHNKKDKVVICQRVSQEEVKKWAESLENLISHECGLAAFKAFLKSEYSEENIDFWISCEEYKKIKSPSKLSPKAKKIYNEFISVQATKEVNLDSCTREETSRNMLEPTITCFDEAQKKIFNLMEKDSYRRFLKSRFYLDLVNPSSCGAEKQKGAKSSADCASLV
Gαi1 R178C (human), sequence (B2RSH2 2-354 R178C): as the sequence (B2RSH2 2-354) above, with R177C counted along it
Gαi1 R178M (human), sequence (B2RSH2 2-354 R178M): as the sequence (B2RSH2 2-354) above, with R177M counted along it
Gαi1 R178C/A326S (human), sequence (B2RSH2 2-354 R178C/A326S): as the sequence (B2RSH2 2-354) above, with R177C, A325S counted along it
Gαi1 A326S (human), sequence (B2RSH2 2-354 A326S): as the sequence (B2RSH2 2-354) above, with A325S counted along it

In the case of “human His-tagged RGS4 (23-298) (from UniProt P49798 23-298)”, the GAP Factor with Gαi1 A326S (human) is 1.1 fold; with Gαi1 R178C/A326S (human) it was 3.63 fold; with Gαi1 R178C (human) it was 0.92 fold; with Gαi1 R178M (human), 1.19 fold; with Gαi1 R178M/A326S (human), 6.47 fold; in experiment [1] it was 0.81 fold. Moreover, the GTPase rate +RGS4 (steady state, GDP immunodetection) with Gαi1 A326S (human) came to 0.11 min⁻¹; with Gαi1 R178C/A326S (human), 0.069 min⁻¹; in the experiment with Gαi1 R178C (human) it was 0.00035 min⁻¹; with Gαi1 R178M (human), 0.007 min⁻¹; with Gαi1 R178M/A326S (human) it was 0.097 min⁻¹; in experiment [1], 0.013 min⁻¹. The maximum polarization shift resulting from RGS stimulation with Gαi1 R178M/A326S (human) came out at 73 mP. Besides, in the experiment with Gαi1 R178M/A326S (human), the stimulation of GTPase activity was determined as 6.6 fold.
